Reference: US20220031813A1, “INHIBITOR OF EXTRACELLULAR TRAP FORMATION IN LEUKOCYTES” (priority 2013, published 2022)

Experiments:
human neutrophils [1] = experiment: Rate of NETs formation in PMA-stimulated neutrophils after pre-treatment, counted by confocal microscopy; assay type: cell-based
[2] = system: histone-induced thrombus model mice; experiment: Bleeding time duration in histone-induced thrombus model mice; assay type: in vivo, mouse; details: 20 mg/kg i.v. 30 minutes before histone 60 mg/kg, n=5, vs no therapy; p<0.0001
Description: As a pre-treatment, 20 mg/kg of bovine lactoferrin was intravenously administered to the tails of 11 week old male C57BL/6 mice, and 30 minute later, 60 mg/kg of histone (sigma, H9250) dissolved in physiological saline and left at 37° C. was intravenously administered to the tails of the mice to check the effect of hemostasis on the DIC model mice (n=5) (Tobias A, et al., Blood, 2011; 118: pp. 3708-3714) (75% of the amount of histone used for improving the survival rate/lifetime extension was adopted). For control group mice without therapy (n=5), 100 μl of physiological saline not containing bovine lactoferrin was intravenously administered to the tails 30 minutes before the administration of histone. For healthy control mice (n=5), physiological saline, instead of the bovine lactoferrin used for the pre-treatment and also instead of histone, was administered. Twenty minutes after the administration of histone, the vein of the tail of each mouse was cut at a position 3 mm from the end, and immersed in a 37° C. physiological saline. At every 30 seconds, the blood was wiped off with a filter paper, and the bleeding time duration was measured (in the case where the bleeding time duration was 15 minutes or longer, the bleeding time duration was recorded as 15 minutes and a hemostasis treatment was performed) (Fuchs T A, et al., Blood, 2011; 118:3708-3714).

[3] = bovine proteins; cited from earlier work
[4] = system: histone-induced thrombus model mice; experiment: Bleeding in lung tissues of histone-induced thrombus model mice; assay type: in vivo, mouse; details: 20 mg/kg i.v. 30 minutes before histone 80 mg/kg, n=4, ten minutes after histone
Description: As a pre-treatment, 20 mg/kg of bovine lactoferrin was intravenously administered to the tails of 11 week old male C57BL/6 mice, and 30 minute later, 80 mg/kg of histone (sigma, H9250) dissolved in physiological saline and left at 37° C. was intravenously administered to tails of the mice to create DIC model mice (n=4) (Tobias A., et al., Blood, 29 Sep. 2011; vol. 118: no. 13, pp. 3708-3714). For control group mice with no therapy (n=4), 100 μl of physiological saline not containing bovine lactoferrin was intravenously administered to the tails 30 minutes before histone was intravenously administered. For healthy control group mice (n=4), physiological saline, instead of the bovine lactoferrin used for the pre-treatment and also instead of histone, was administered. Ten minutes after the administration of histone (second administration of physiological saline), the mice were put to euthanasia. Lung tissues were extracted and immobilized by use of 4% paraformaldehyde.

[5] = system: histone-induced thrombus (DIC) model mice; experiment: Survival rate/lifetime extension of histone-induced thrombus (DIC) model mice; assay type: in vivo, mouse; details: 20 mg/kg i.v. 30 minutes before histone 80 mg/kg, n=8; control: one alive; p=0.0005
Description: 80 mg/kg of histone (sigma, H9250) dissolved in physiological saline and left at 37° C. was intravenously administered to the tails of 11 week old male C57BL/6 mice to create DIC model mice (Tobias A. et al., blood, 29 Sep. 2011, vol. 118, no. 13, pp. 3708-3714). As a pre-treatment, 20 mg/kg of bovine lactoferrin was intravenously administered to the tails of the mice, and 30 minute later, histone was intravenously administered to the tails of the mice (n=8). These mice were labeled as a group of mice provided with therapy with lactoferrin. To the tails of different mice (n=8), 100 μl of physiological saline not containing bovine lactoferrin was intravenously administered, and 30 minutes later, histone was intravenously administered. These mice were labeled as a control group of mice provided with no therapy. The survival rate/lifetime extension after the administration of histone was evaluated by use of the Kaplan-Meier method. The control group of mice provided with no therapy gradually started to die about 20 minutes after the administration of histone. Two days later, two mice were alive, and 4 days later, one mouse was alive. By contrast, the 8 mice in the group provided with therapy with bovine lactoferrin were all alive even 4 days later. […]

human neutrophils [6] = experiment: Specificity experiment: inhibition of NETs formation by DNA concentration in the culture supernatant; assay type: cell-based; details: n=3, p<0.01, FIG. 10
Description: About 1 hour after the isolation of the neutrophils described in “1. Method of isolating human neutrophils” in Example 2, the neutrophils were pre-treated. On an 8-well microslide (Cat. No. ib 80826 Ibidi (registered trademark)), the neutrophils were seeded in 400 μl of culture DMEM+2% human serum Alb (serum human albumin; Product No. A9080 Sigma+4 mM L-glutamine) at a rate of about 1.0×10^5 cells/well, and stimulated with PMA (final concentration: 25 nM, stock: 10 mM in DMSO, Sigma Prod No. P8139). At thirty minutes before the stimulation, and at every one hour or every two hours after the stimulation, 200 μg/ml of human lactoferrin (stock: 100 mg/ml, 200 μl; Cat. No. SIGL6793, SIGMA) was added to perform inhibition [FIG. 2].
The culture supernatant was recovered and centrifuged at 200×g for 10 minutes, and the supernatant was transferred to a new microscopic centrifuge tube. The DNA amount was measured by use of Picogreen dsDNA assay reagent (P11496 Invitrogen) in accordance with an accompanying protocol. Treatment with human lactoferrin at one hour and two hours after the stimulation was a similar effect to the prior pre-treatment, the DNA concentration in the culture supernatant decreased, resulting in suppression of the release of the DNAs by the NETs [FIG. 2]. […]

B1: bovine lactoferrin: bovine lactoferrin (Product No. 123-04124 WAKO); in Example 9 eluted from crude bovine milk protein; cow lactoferrin SEQ ID NO 2 (protein, listed as Bos taurus)
chain: MKLFVPALLSLGALGLCLAAPRKNVRWCTISQPEWFKCRRWQWRMKKLGAPSITCVRRAFALECIRAIAEKKADAVTLDGGMVFEAGRDPYKLRPVAAEIYGTKESPQTHYYAVAVVKKGSNFQLDQLQGRKSCHTGLGRSAGWIIPMGILRPYLSWTESLEPLQGAVAKFFSASCVPCIDRQAYPNLCQLCKGEGENQCACSSREPYFGYSGAFKCLQDGAGDVAFVKETTVFENLPEKADRDQYELLCLNNSRAPVDAFKECHLAQVPSHAVVARSVDGKEDLIWKLLSKAQEKFGKNKSRSFQLFGSPPGQRDLLFKDSALGFLRIPSKVDSALYLGSRYLTTLKNLRETAEEVKARYTRVVWCAVGPEEQKKCQQWSQQSGQNVTCATASTTDDCIVLVLKGEADALNLDGGYIYTAGKCGLVPVLAENRKSSKHSSLDCVLRPTEGYLAVAVVKKANEGLTWNSLKDKKSCHTAVDRTAGWNIPMGLIVNQTGSCAFDEFFSQSCAPGADPKSRLCALCAGDDQGLDKCVPNSKEKYYGYTGAFRCLAEDVGDVAFVKNDTVWENTNGESTADWAKNLNREDFRLLCLDGTRKPVTEAQSCHLAVAPNHAVVSRSDRAAHVKQVLLHQQALFGKNGKNCPDKFCLFKSETKNLLFNDNTECLAKLGGRPTYEEYLGTEYVTAIANLKKCSTSPLLEACAFLTR
Human neutrophils [1]; pre-treatment 2 μg/ml for 30 minutes, then PMA 25 nM
  rate of the NETs formed at plateau, compared with stimulation merely with PMA: half
Human neutrophils [1]; pre-treatment 20 μg/ml for 30 minutes, then PMA 25 nM
  rate of the NETs formed at plateau, compared with stimulation merely with PMA: half
Human neutrophils [1]; pre-treatment 200 μg/ml for 30 minutes, then PMA 25 nM
  formation of the NETs at plateau, compared with stimulation merely with PMA: ¼
Human neutrophils [1]; pre-treatment with 2, 20 or 200 μg/ml, FIG. 1-A, 1-B
  inhibitory effect on the formation of the NETs: concentration-dependent manner
[2]
  bleeding time duration: significantly shorter
[3]
  Isoelectric point: 8.2-8.9
[4]
  bleeding in lung tissues: not observed to bleed almost at all
[5]
  mice alive 4 days after histone: 8 mice
Human neutrophils [6]
  inhibition of the formation of the NETs: inhibited
